What was measured:
[1] = test system: Schwann cell/neuronal cocultures; assay: Western blot of myelin proteins MAG and P0 in Schwann cell/DRG neuronal cocultures; type: cell-based, rat
Experimental: (§1) Dorsal Root Ganglia (DRG) Neuronal Schwann Cell Cocultures. Purified neuronal and Schwann cell cultures were prepared as previously described. Neuronal cultures were established from DRG neurons obtained from Sprague-Dawley rat embryos at 15 days gestation (Simonsen Laboratories, Gilroy, Calif.). DRG neurons were dissociated and plated onto collagen coated coverslips. Nonneuronal cells were eliminated by cycling (three 2-day cycles) with a fluorodeoxyuridine-containing medium (10 μM). NGF-dependent neurons were then maintained for 1 week in a medium consisting of 10% FBS in MEM and 100 ng/ml of NGF.
(§2) Schwann cells were isolated from the sciatic nerve of 4-day-old rat pups. Schwann cells were purified by using cytosine arabinoside and Thy-1.1 antibody mediated lysis of the fibroblasts (the anti-Thy-1.1 antibody was obtained from the American Type Culture Collection). Approximately 100,000 purified Schwann cells were than seeded onto purified neuronal cultures of ˜50,000 cells and allowed to proliferate and ensheath the axons (˜1 week). Myelination was then initiated with the addition of ascorbic acid (50 μg/ml), which was replenished with feeding every 2 to 3 days.
(§3) Western Blot Analysis. Samples from Schwann cell/neuronal co-cultures and sciatic nerves were prepared for Western blot analysis by homogenization in radioimmunoprecipitation assay (RIPA) buffer [PBS with 1% Nonidet P-40/0.5% deoxycholate/0.1% SDS/1 mM PMSF/Complete protease inhibitor tablets (Roche Molecular Biochemicals)] followed by high-speed centrifugation. Protein determination was made by using the Bicinchoninic Acid Kit (Sigma). Equivalent amounts of total protein extract from each sample were mixed with sample buffer, boiled, and loaded onto SDS polyacrylamide gels. Electrophoretic separation of the extracts was typically performed on 10-15% (depending on the molecular weight of the protein of interest) discontinuous acrylamide gels under denaturing conditions. The proteins were then transferred to pure nitrocellulose membranes (PROTRAN BA85, Schleicher and Schuell, 0.45 μm) and probed with specific antibodies. The mouse monoclonal anti-myelin-associated glycoprotein (MAG; Chemicon) was used at a concentration of 2.5 μg/ml (under nonreducing conditions); the mouse monoclonal anti-P0 antibody was used at a dilution of 1:5,000. All primary antibodies were incubated overnight at 4° C. Secondary HRP-conjugated anti-mouse IgG and anti-rabbit IgG antibodies were used at a dilution of 1:10,000 (Jackson ImmunoResearch). The blots were developed by chemiluminescence (Renaissance, DuPont_NEN) as described by the manufacturer. All of the blots were imaged and quantitated in the linear range for the corresponding antibodies. Protein concentrations of the samples were serial diluted until linear intensities were achieved. In many instances, the blots were stripped and reprobed with different antibodies.

[2] = test system: Schwann cell/neuronal cocultures; assay: P0 immunocytochemistry of mature myelin internodes in Schwann cell/neuronal cocultures; type: cell-based; details: for Schwann cell proliferation and morphology of ensheathed Schwann cells / cell death (neurofilament and nuclear staining): 100 ng/ml; for formation of mature myelin internodes (P0 immunostaining): BDNF, TrkB-Fc, TrkC-Fc 1 μg/ml, added at day of induction, 6 days after induction
Experimental: as §1, §2
Immunocytochemistry. Cocultures were fixed in 4% paraformaldehyde before dehydration through a graded ethanol series (50, 70, 90, and 100%). Samples were then permeabilized and blocked by incubation with 20% normal goat serum or 10% FCS. Primary antibodies included the mouse monoclonal anti-P0 antibody used at a dilution of 1:500 and the mouse monoclonal anti-MAG at a concentration of 2.5 μg/ml. The Texas red-conjugated anti-mouse IgG (Jackson ImmunoResearch) was used as a secondary antibody at a dilution of 1:1,000. Cellular nuclei were examined by using the Hoechst dye. Samples were mounted and fluorescence microscopy was accomplished by using a Nikon Microphot FXA.

sciatic nerve [3] = assay: Western blot of MAG and P0 in developing sciatic nerve after s.c. injection of newborn mice; type: in vivo, mouse; details: for P0 and MAG protein expression, wild-type mice: newborn wild-type mice, Western-blot 4 days later
Experimental: as §3
(§4) Injections in Mouse Sciatic Nerve. BDNF, NT3, TrkB-Fc, and TrkC-Fc (3 μg each; Regeneron Pharmaceuticals) were injected s.c. starting from the caudal portion of the greater trochanter region and running parallel along the sciatic nerve (total volume of 5 μl). T he contralateral leg served as a control for each factor with the injection of saline. Injections were performed on 1-day-old mouse pups (C57BU6, Simonsen Laboratories) and the sciatic nerves were extracted and processed 48 h later. A second set of mice were reinjected with the factors and then examined after an additional 48 h (4 days of total treatment). Nerves used for electron microscopy were trimmed and incisions were made at the flexure of the greater trochanter. In total, 11 animals were analyzed after injection with BDNF, 12 with TrkB-Fc, 11 with NT3, and 7 with TrkC-Fc.

[4] = test system: sciatic nerve of p75NTR -/- mice; assay: Western blot of P0 and MAG in sciatic nerve of injected newborn p75NTR -/- mice; type: in vivo, mouse; details: Western-blot 4 days later
Experimental: (§5) (A-B) Newborn wild-type and p75^NTR −/− mice were injected with BDNF (wild-type, n=10; p75^NTR −/−, n=25) and NT3 (wild-type, n=13; p75^NTR −/−, n=14) or the scavengers TrkB-Fc (wild-type, n=13; p75^NTR −/−, n=20) and TrkC-Fc (wild-type, n=14; p75^NTR −/−, n=20) and the levels of (A) P0 and (B) MAG were analyzed by Western-blot 4 days later. Asterisks: p<0.01. (C-D) Wild-type and p75^NTR −/− SC/DRG cocultures were established from E13 mouse embryos obtained through crossing heterozygous (p75^NTR +/−) mice. Levels of (C) P0 and (D) MAG were determined by Western-blot six days after initiation of myelination in the presence of the different factors. Asterisks: p<0.01.

[5] = test system: wild-type SC/DRG cocultures; assay: Western blot of P0 and MAG in wild-type mouse SC/DRG cocultures; type: cell-based; details: six days after initiation of myelination
Experimental: as §5

[6] = test system: p75NTR -/- SC/DRG cocultures; assay: Western blot of P0 and MAG in p75NTR -/- mouse SC/DRG cocultures; type: cell-based; details: six days after initiation of myelination
Experimental: as §5

SC/DRG cocultures = assay: TUNEL analysis of neuronal or glial survival in SC/DRG cocultures; type: cell-based, rat; details: added at the start of myelination
sciatic nerve [7] = assay: Electron microscopy of myelin ultrastructure in developing sciatic nerve of injected newborn mice; type: in vivo, mouse
Experimental: as §4
Electron Microscopy. Electron microscopy was performed by the Electron Microscopy Facility in the Department of Microbiology and Immunology (Stanford University, CA). Processing of the sciatic nerve was accomplished by fixation in 2% glutaraldehyde and 4% paraformaldehyde solution in PBS, followed by post-fixation in 1% OSO4. […] Finally, samples were infiltrated and embedded in pure epoxy.

[8] = 100 ng/ml added at day of induction, analysed after 6 days of induction
[9] = 3 μg at P1, reinjected 2 days later, nerves at P5, vs contralateral saline
[10] = 3 μg at P1, reinjected, nerves at P5

For “NT3: neurotrophin-3, gift from Regeneron Pharmaceuticals”, the “diminished expression of MAG” value [1, 8] was ~2 fold, the “diminished expression of P0” value [1, 8] was ~3 fold and the “Schwann cell proliferation and morphology of ensheathed Schwann cells” value [2] was “Neither BDNF nor NT3 caused any changes”. The “cell death (neurofilament and nuclear staining)” value [2] was “no sign of increased cell death”, the “formation of mature myelin internodes (P0 immunostaining)” value ([2]; NT3 100 ng/ml) was “inhibited the appearance of myelin internodes” and the “thickness and length of detected internodes vs control cultures” value ([2]; NT3 100 ng/ml, TrkB-Fc 1 μg/ml) was “significantly thinner and shorter in length”. The “inhibition of MAG and P0 expression in the sciatic nerves” value (sciatic nerve [3]; 3 μg s.c., mice treated for 2 days, vs contralateral leg) was ~25%, the “P0 and MAG protein expression, wild-type mice” value (sciatic nerve [3]) was “inhibited” and the “P0 and MAG protein expression, p75NTR -/- mice” value [4] was “inhibited”. The “myelin protein expression (P0, MAG), wild-type cocultures” value [5] was “inhibited” and the “myelin protein expression (P0, MAG), p75NTR -/- cocultures” value [6] was “inhibited”.

With `COC(=O)[C@@]1(O)C[C@H]2O[C@]1(C)n1c3ccccc3c3c4c(c5c6ccccc6n2c5c31)C(=O)NC4` [K252a, K-252a, reference compound] the “accumulation of myelin proteins MAG and P0” value ([1]; rat SC/DRG cocultures treated for 6 days from induction) was “increase in myelin protein accumulation”, the “formation of mature myelin internodes (P0 immunocytochemistry)” value ([2]; rat SC/DRG cocultures, Example 2) was “increase” and the “neuronal or glial survival” value (SC/DRG cocultures) was “does not affect neuronal or glial survival”.

B1: BDNF: neurotrophin brain-derived neurotrophic factor, gift from Regeneron Pharmaceuticals (protein, UniProt P23560 19-247, looked up)
Neurotrophic factor BDNF …: APMKEANIRGQGGLAYPGVRTHGTLESVNGPKAGSRGLTSLADTFEHVIEELLDEDQKVRPNEENNKDADLYTSRVMLSSQVPLEPPLLFLLEEYKNYLDAANMSMRVRRHSDPARRGELSVCDSISEWVTAADKKTAVDMSGGTVTVLEKVPVSKGQLKQYFYETKCNPMGYTKEGCRGIDKRHWNSQCRTTQSYVRALTMDSKKRIGWRFIRIDTSCVCTLTIKRGR
With B1 the “enhancement of MAG expression over control cultures” value [1, 8] was ~2 fold, the “enhancement of P0 expression over control cultures” value [1, 8] was ~1.5 fold and the “modulation of myelination (P0 and MAG) in the presence of K252a” value ([1]; in combination with K252a, 6 days) was “still able to modulate myelination”. For the same molecule, the “Schwann cell proliferation and morphology of ensheathed Schwann cells” value [2] was “Neither BDNF nor NT3 caused any changes”, the “cell death (neurofilament and nuclear staining)” value [2] was “no sign of increased cell death” and the “formation of mature myelin internodes (P0 immunostaining)” value ([2]; NT3 100 ng/ml) was “produced an enhancement in myelin formation”. For the same molecule, the “enhancement of MAG and P0 expression in the sciatic nerves” value (sciatic nerve [3]; 3 μg s.c., 1-day-old mouse pups, vs saline-injected contralateral leg) was “more than 50%”, the “P0 and MAG protein expression, wild-type mice” value (sciatic nerve [3]) was “enhanced P0 and MAG protein expression” and the “P0 and MAG expression in sciatic nerve” value (sciatic nerve [3]; s.c. injection of newborn mice, nerves isolated four days later (Example 2)) was “enhanced P0 and MAG expression”. For the same molecule, the “decrease in ensheathed axons” value (sciatic nerve [7]; [9]) was 2 fold, the “number of myelinated axons” value (sciatic nerve [7]; [9]) was “significant correlative increase in the number of myelinated axons” and the “more wraps of myelin on average than control nerves” value (sciatic nerve [7]; [10]) was 25%. For the same molecule, the “percentage of myelinated axons with more than 25 wraps of myelin” value (sciatic nerve [7]; [10]) was “more than 30%”, the “thickness of the myelin sheath (number of lamellae distribution) vs contralateral control nerve” value (sciatic nerve [7]; newborn mice, sciatic nerve) was “significantly thicker” and the “total number of axons vs contralateral control nerves” value (sciatic nerve [7]; ultrastructural studies) was “did not reveal any differences in the total number of axons”. For the same molecule, the “P0 and MAG protein expression, p75NTR -/- mice” value [4] was “neither BDNF nor TrkB-Fc were able to modulate myelin protein expression”, the “myelin protein expression (P0, MAG), wild-type cocultures” value [5] was “enhanced” and the “myelin protein expression (P0, MAG), p75NTR -/- cocultures” value [6] was “neither BDNF nor TrkB-Fc had any effect”.
